T1: human DKK1 (human, UniProt O94907 32-266)
T1 construct: also called huDKK1; hDKK1
T1 sequence: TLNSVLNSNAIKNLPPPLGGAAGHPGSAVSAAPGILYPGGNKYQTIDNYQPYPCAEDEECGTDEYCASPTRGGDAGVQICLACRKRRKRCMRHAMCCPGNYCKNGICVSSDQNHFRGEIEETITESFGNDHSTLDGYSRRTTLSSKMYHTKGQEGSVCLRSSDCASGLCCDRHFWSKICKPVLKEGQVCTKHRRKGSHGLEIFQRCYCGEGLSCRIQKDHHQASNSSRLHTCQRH

T2: mouse DKK1 (mouse, UniProt O54908 32-272)
T2 construct: also called murine DKK1
T2 sequence: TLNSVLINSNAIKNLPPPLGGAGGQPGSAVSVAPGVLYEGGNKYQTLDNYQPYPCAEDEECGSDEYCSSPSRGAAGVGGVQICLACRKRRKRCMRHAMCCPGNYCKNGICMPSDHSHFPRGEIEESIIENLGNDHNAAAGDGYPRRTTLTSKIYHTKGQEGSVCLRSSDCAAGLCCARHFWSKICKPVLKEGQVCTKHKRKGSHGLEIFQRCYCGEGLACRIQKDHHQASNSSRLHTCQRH

T3: cynomologous DKK1 (cynomolgus monkey, UniProt O94907 32-266 (human entry), limits assumed)
T3 construct: also called cyno DKK1
T3 chain: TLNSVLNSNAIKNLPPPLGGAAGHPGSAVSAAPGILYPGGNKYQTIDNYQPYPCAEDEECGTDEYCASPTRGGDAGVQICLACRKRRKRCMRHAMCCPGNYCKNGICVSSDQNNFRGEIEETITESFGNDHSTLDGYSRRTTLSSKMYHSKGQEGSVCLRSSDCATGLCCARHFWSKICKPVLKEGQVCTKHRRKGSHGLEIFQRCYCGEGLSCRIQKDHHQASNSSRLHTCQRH

T4: T4 (human)
T4 construct: also called tryptic D1 peptide T4
T4 chain: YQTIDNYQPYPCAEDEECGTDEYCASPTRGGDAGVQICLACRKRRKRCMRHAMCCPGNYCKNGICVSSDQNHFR

T5: huDkk4 (human, UniProt Q9UBT3 19-224, limits assumed)
T5 sequence (looked up): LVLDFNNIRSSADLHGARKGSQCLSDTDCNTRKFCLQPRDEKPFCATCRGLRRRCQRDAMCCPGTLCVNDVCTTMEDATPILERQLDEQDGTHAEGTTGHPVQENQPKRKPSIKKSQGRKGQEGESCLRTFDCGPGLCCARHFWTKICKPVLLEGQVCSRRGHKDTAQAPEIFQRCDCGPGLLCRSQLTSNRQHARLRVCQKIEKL

T6: T3 (human)
T6 construct: a separate HPLC peak; also called tryptic D1 fragment T3
T6 chain 1: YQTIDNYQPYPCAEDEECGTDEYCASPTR
T6 chain 2: GGDAGVQICLACR
T6 chain 3: CMR
T6 chain 4: HAMCCPGNYCK
T6 chain 5: NGICVSSDQNHFR

T7: AspN1 (human)
T7 construct: Two peptides held together by five disulfide bonds in D1
T7 chain 1: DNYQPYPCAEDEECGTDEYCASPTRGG
T7 chain 2: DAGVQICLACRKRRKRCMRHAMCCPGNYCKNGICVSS

T8: CNBr1 (human, UniProt O94907 207-266)
T8 construct: Two peptides held together by 5 disulfide bonds; also called CNBr fragment of hDKK1 representing disulfide domain D2; not shown: added C-terminal flag peptide (positions 267-274)
T8 sequence 1: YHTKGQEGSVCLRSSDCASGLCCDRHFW
T8 sequence 2: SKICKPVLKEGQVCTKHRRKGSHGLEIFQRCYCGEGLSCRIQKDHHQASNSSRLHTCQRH

T9: T2 (human)
T9 construct: Five peptides held together by the five disulfide bonds of D1; from trypsin digestion of HuDKK1 alone; also called tryptic D1 fragment T2
T9 chain 1: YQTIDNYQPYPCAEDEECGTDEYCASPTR
T9 chain 2: GGDAGVQICLACR
T9 chain 3: CMR
T9 chain 4: HAMCCPGNYCK
T9 chain 5: NGICVSSDQNHFR

T10: AspN2 (human)
T10 construct: a separate HPLC peak
T10 chain 1: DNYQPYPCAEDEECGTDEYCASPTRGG
T10 chain 2: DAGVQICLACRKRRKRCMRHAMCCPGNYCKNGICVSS

B1: 6.147.4 (antibody, V domains shown)
VH: QVQLVESGGGVVQPGRSLRLSCAASGFTFSRYDMHWVRQAPGKGLEWVAIIFYDGSNKYYADPVKGRFTISRDNSKNTLYLQMNSLRAEDTAVYYCATLAAAFDYWGQGTLVTVSS
VL: YVLTQPPSVSVAPGQTARITCGGNNIGSKSVHWYQQKPGQAPVLVVYDDSDRPSEIPERFSGSNSGNTATLTISRVEAGDEADYYCQVWDSSSDHVVFGGGTRLTVL
notes: Fully human hybridoma IgG, lambda (Vl)
B2: 5.80.1 (antibody, V domains shown)
VH: EVQLVQSGAEVKKPGESLKISCKGSGYSFTSYWIGWVRQMPGKGLEWMGIIYPGDSDTRYSPSFQGQVTISADKSISTAYLQWSSLTASDTAMYYCARQGESFDYWGQGTLVTVSS
VL: QSVLTQPPSVSGAPGQRVTISCTGSSSNIGADYDVHWYQQLPGTAPKLLIYDYSNRPSGVPDRFSGSKSGTSASLAITGLQAEDEADYYCQSYDNSLSGYVVFGGGTKLTVL
notes: as for B1
B3: 5.77.1 (antibody, V domains shown)
VH: QVQLVQSGAEVKKPGASVKVSCKASGYTFTSYDINWVRQATGQGLEWMGWMNLNSDNTGYAQKFQGRVTMTRNTSISTAYMELSSLRSEDTAVYYCASIAARRDYNYYGMDVWGQGTKVTVSS
VL: QSPSVSVAPGQTARITCGGNNIGSKSVHWYQQKPGQAPVLVVYDDSDRPSGIPERFSGSNSGNTATLTISRVEAGDEADYYCQVWDSSSDHWVFGGGTKLTVL
notes: as for B1
B4: 6.116.6 (antibody, V domains shown)
VH: QVQLVESGGGVVQPGRSLRLSCAASGFTFSGYGMHWVRQAPGKGLEWVAVISYDGNDKYYADSVKGRFTISRDNAKNTLYLQMNSLRAEDTAVYYCARELRVLWGQGTLVTVSS
VL: DIVMTQTPLSLSVTPGQPASISCKSGQSLLHNDGKTYLYWYLQKPGQPPQFLIYEVSNRFSRVPDRFSGSGSGTDFTLKISRVEAEDVGIYYCMQSIQLPWTFGQGTQVEIK
notes: Fully human IgG, kappa (Vk)
B5: 2.40.1 (antibody, V domains shown)
VH: QVQLVESGGGVVQPGRSLRLSCAASGFTFSSYGMHWVRQAPGKGLGWVAVISYDGSDKYYADSVKGRFTISRDNSKNTLYLQMNSLRAEDTAVYYCARDLVDTAMPWGQGTTVTVSS
VL: DIVMTQSPLSLSVTPGQPASISCKSSQSLLHSDGKTYLYWYLQKPGQPPQLLIYEVSNRFSGVPDRFSGSGSGTDFTLKISRVEAEDVGVYYCMQSIQVPWTFGQGTKVEIK
notes: Fully human hybridoma IgG, kappa (Vk)
B6: 6.139.5 (antibody, V domains shown)
VH: QVQLVESGGGVVQPGRSLRLSCAASGFTFSSYGMHWVRQAPGKGLEWVAVISYDGGDQYYADSVKGRFTISRDNSKNTLYLQMNSLRTEDTAEYYCARELRVLWGQGTLVTVSS
VL: DIVMTQTPLSLSVTPRQPASISCKSSQSLLHSDGKTYLYWYLQKPGQPPQFLIYEVSNRFSGVPDRFSGSGSGTDFTLKISRVEAEDVGVYYCMQSIQLPWTFGQGTKVEIK
notes: as for B5
B7: 6.37.5 (antibody, V domains shown)
VH: QVQLVESGGGVVQPGRSLRLSCAASGFTFSGYGMHWVRQAPGKGLEWVAVISYDGNDKYYADSVKGRFTISRDNAKNTLYLQMNSLRAEDTAVYYCARELRVLWGQGTLVTVSS
VL: DIVMTQTPLSLSVTPGQPASISCKSGQSLLHSDGKTYLYWYLQKPGQPPQFLIYEVSNRFSRVPDRFSGSGSGTDFTLRISRVEAEDVGIYYCMQSIQLPWTFGQGTQVEIK
notes: Fully human IgG, kappa (Vk)
B8: 5.25.1 (antibody, V domains shown)
VH: QVQLVQSGAEVKKPGASVKVSCKASGYTFTSYDINWVRQATGQGLEWMGWMDPNSGNTGYAQKFQGRVTMTRNTSISTAFMELSSLRSEDTAVYYCARTDYFYFGMDVWGQGTTVTVSS
VL: DIQMTQSPSSLSASVGDRVTITCQASQDISKDLNWYQQKPGKAPRLLIYDASNLETGVPSRFSGSGSGTDFTFTISSLQPEDIATFYCQQYDHLPIAFGQGTRLEIK
notes: as for B5
B9: 5.32.1 (antibody, V domains shown)
VH: QVQLVQSGAEVKKPGASVKVSCKASGFTFTSYDISWVRQATGLGLEWMGWMNPSSGYTGYAQNFQGRVTMTWNTSISTVYMELSSLRSEDTAVYYCARTDYYYYGMDVWGRGTTVTVSS
VL: DIQMTQSPSSLSASVGDRVTITCQASQDISKDLNWYQQKPGKAPKLLIYDASNLETGVPSRFSGSGSGTDFTFTISSLQPEDIATYYCQQYDDLPITFGQGTRLEIK
notes: as for B5

Key:
human DKK1 [1] = target: T1, human DKK1; test: KinExA 3000 equilibrium binding in solution
Method: (§1) Accordingly, the affinity of several of these antibodies to DKK1 was further assessed by an equilibrium binding analysis using the more sensitive KinExAtm 3000. For these measurements, Reacti-Gel 6× beads (Pierce, Rockford, Ill.) were pre-coated with human, cynomologous or mouse DKK1 and blocked with BSA. One hundred pM, 300 pM, or 1000 pM of the antibody was mixed with various concentrations of human, mouse or cyno DKK1, ranging in concentration from 1 pM to 50 nM, and equilibrated at room temperature for 8 hours. The mixtures were then passed over the DKK1-coated beads. The amount of bead-bound anti-DKK1 antibody was quantified using goat anti-human-IgG antibody labeled with a fluorescent tag (Cy5; Jackson Immuno Research, West Grove, Pa.). The amount of fluorescent signal measured was proportional to the concentration of free anti-DKK1 antibody in each reaction mixture at equilibrium. The dissociation equilibrium constant (Kd) was obtained from nonlinear regression of the competition curves using a dual-curve one-site homogeneous binding model using the KinExA software.

human DKK1 [2] = target: T1, human DKK1; test: cell-based or functional assay
human DKK1 [3] = target: T1, human DKK1; test: BiaCore 2000
Text: BiaCore allowed us to determine the kd of the selected antibodies.

mouse DKK1 = target: T2, mouse DKK1; test: KinExA 3000 equilibrium binding in solution
Method: as §1

cynomologous DKK1 = target: T3, cynomologous DKK1; test: KinExA 3000 equilibrium binding in solution
Method: as §1

T4 = target: T4, T4; test: BiaCore, competition with surface-bound DKK1
huDkk4 = target: T5, huDkk4; test: BiaCore
T3 = target: T6, T3; test: BiaCore
AspN1 = target: T7, AspN1; test: BiaCore
CNBr1 = target: T8, CNBr1; test: BiaCore
T2 = target: T9, T2; test: BiaCore
AspN2 = target: T10, AspN2; test: BiaCore

| Binder | Kd (human DKK1 [1]) [nM] | ST2 EC50 (human DKK1 [2]) [nM] | TCF EC50 (human DKK1 [2]) [nM] | koff (human DKK1 [3]) [s⁻¹] | Kd (mouse DKK1) [nM] | Kd (cynomologous DKK1) [nM] | binding result (T4) | binding result (huDkk4) | binding result (T3) | binding result (AspN1) | binding result (CNBr1) | binding result (T2) | binding result (AspN2) |
| --- | --- | --- | --- | --- | --- | --- | --- | --- | --- | --- | --- | --- | --- |
| B1 | 0.125 | 2.57 | 3.95 | 0.000251 | – | – | – | – | – | – | – | – | – |
| B2 | 0.06 | 5.03 | 3.22 | < 2e-05 | 0.025 | – | – | – | – | – | – | – | – |
| B3 | 0.008 | 6.23 | 2.14 | < 2e-05 | 0.14 | – | – | – | – | – | – | – | – |
| B4 | 0.025 | 2.77 | 4.69 | 2e-05 | 0.04 | 0.04 | – | – | – | – | – | – | – |
| B5 | 0.22 | 2.47 | 1.28 | 6.27e-05 | 0.48 | 0.22 | – | – | – | – | – | – | – |
| B6 | 0.11 | 3.93 | 9.78 | 0.000209 | – | – | – | – | – | – | – | – | – |
| B7 | 0.03 | 3.98 | 6.57 | 4e-05 | 0.05 | 0.035 | – | – | – | – | – | – | – |
| B8 | 0.003 | 5.96 | 1.88 | < 2e-05 | 0.15 | – | binds | no binding | no binding | binds | no binding | no binding | binds |
| B9 | 0.003 | 3.48 | 1.01 | 0.000191 | 0.04 | – | – | no binding | – | – | – | – | – |

Source: patent US20210040189A1 (Amgen, published 2021)
